Tests used:
[1] = molecular target: Recombinant human IL-13 (R&D Systems, MN, catalog no. 213-ILB/CF) (human) (UniProt P35225); assay: sandwich pair screen, negative (blank) signal, binder is detection Ab; capture Ab 4D7
[2] = molecular target: Recombinant human IL-13 (R&D Systems, MN, catalog no. 213-ILB/CF) (human) (UniProt P35225); assay: sandwich pair screen, negative (blank) signal, binder is detection Ab; capture Ab 11H4
[3] = molecular target: Recombinant human IL-13 (R&D Systems, MN, catalog no. 213-ILB/CF) (human) (UniProt P35225); assay: sandwich pair screen, negative (blank) signal, binder is detection Ab; capture Ab 14C9
[4] = molecular target: Recombinant human IL-13 (R&D Systems, MN, catalog no. 213-ILB/CF) (human) (UniProt P35225); assay: sandwich pair screen, negative (blank) signal, binder is detection Ab; capture Ab 8C11
[5] = molecular target: Recombinant human IL-13 (R&D Systems, MN, catalog no. 213-ILB/CF) (human) (UniProt P35225); assay: sandwich pair screen, negative (blank) signal, binder is detection Ab; capture Ab 32116
[6] = molecular target: Recombinant human IL-13 (R&D Systems, MN, catalog no. 213-ILB/CF) (human) (UniProt P35225); assay: sandwich pair screen, negative (blank) signal, binder is detection Ab; capture Ab 228B/C
[7] = molecular target: Recombinant human IL-13 (R&D Systems, MN, catalog no. 213-ILB/CF) (human) (UniProt P35225); assay: sandwich pair screen, 100 pg/mL recombinant IL-13, binder is detection Ab; capture Ab 4D7
[8] = molecular target: Recombinant human IL-13 (R&D Systems, MN, catalog no. 213-ILB/CF) (human) (UniProt P35225); assay: sandwich pair screen, 100 pg/mL recombinant IL-13, binder is detection Ab; capture Ab 11H4
[9] = molecular target: Recombinant human IL-13 (R&D Systems, MN, catalog no. 213-ILB/CF) (human) (UniProt P35225); assay: sandwich pair screen, 100 pg/mL recombinant IL-13, binder is detection Ab; capture Ab 14C9
[10] = molecular target: Recombinant human IL-13 (R&D Systems, MN, catalog no. 213-ILB/CF) (human) (UniProt P35225); assay: sandwich pair screen, 100 pg/mL recombinant IL-13, binder is detection Ab; capture Ab 8C11
[11] = molecular target: Recombinant human IL-13 (R&D Systems, MN, catalog no. 213-ILB/CF) (human) (UniProt P35225); assay: sandwich pair screen, 100 pg/mL recombinant IL-13, binder is detection Ab; capture Ab 32116
[12] = molecular target: Recombinant human IL-13 (R&D Systems, MN, catalog no. 213-ILB/CF) (human) (UniProt P35225); assay: sandwich pair screen, negative (blank) signal, binder is detection Ab; capture Ab MILR1444A
[13] = molecular target: Recombinant human IL-13 (R&D Systems, MN, catalog no. 213-ILB/CF) (human) (UniProt P35225); assay: sandwich pair screen, 100 pg/mL recombinant IL-13, binder is detection Ab; capture Ab 228B/C
[14] = molecular target: Recombinant human IL-13 (R&D Systems, MN, catalog no. 213-ILB/CF) (human) (UniProt P35225); assay: sandwich pair screen, 100 pg/mL recombinant IL-13, binder is detection Ab; capture Ab MILR1444A

Sequence of Recombinant human IL-13 (R&D Systems, MN, catalog no. 213-ILB/CF) (human) (P35225 other isoform, or with tags, fused parts or gaps): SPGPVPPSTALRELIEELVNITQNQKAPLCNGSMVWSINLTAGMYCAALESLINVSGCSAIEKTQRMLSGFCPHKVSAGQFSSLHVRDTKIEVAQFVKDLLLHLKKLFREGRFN

Assay Signal Neg (blank) [1]: 21.7
Assay Signal Neg (blank) [2]: 23.2
Assay Signal Neg (blank) [3]: 30
Assay Signal Neg (blank) [4]: 3.9
Assay Signal Neg (blank) [5]: 17.2
Assay Signal Neg (blank) [6]: 26.5
Assay Signal Pos [7]: 23.6
Assay Signal Pos [8]: 2310
Assay Signal Pos [9]: 33.2
Assay Signal Pos [10]: 4.1
Assay Signal Pos [11]: 18.2
Assay Signal Neg (blank) [12]: 0.3
Assay Signal Pos [13]: 52.7
Assay Signal Pos [14]: 47.2
Substance: MAB213 (R&D Systems, MN, Cat. No. MAB213) (antibody)
